Experimental data reported in article PMC3131678.

Substrate: O=[N+]([O-])c1ccc(O)cc1
Assay: cells, lysate or membranes named
Conditions: other: PNPH; CI 95% confidence interval; pH 7.4; 37.0 °C
Procedure: Briefly, liver samples were homogenised in 10 mM Tris-HCl, 250 mM sucrose (pH7.4) and centrifuged for 10 minutes at 10.000×g. Afterwards, CaCl2 to a final concentration of 8 mM was added to the supernatant, and the samples were centrifuged at 25.000×g for 30 minutes. The protein concentrations of the microsomal fraction (pellet) were determined with a commercially available kit (Bio-Rad laboratories) according to the manufacturer's instructions and bovine serum albumin was used as standard. The prepared microsomes were diluted to a final protein concentration of 4 mg/ml and stored at –80°C before analysis. All procedures were done on ice.
Briefly, microsomes were incubated together with the appropriate type of substrate and NADPH at 37°C. The resulting production of resorufin or p-nitrochetecol was measured by HPLC. For studying inhibition, steroids were additionally added to the microsomes. Inhibition studies were performed using a pool of microsomes from three male pigs. […] All steroids were dissolved in methanol. The final concentration of methanol was below 0.1% in the reaction volumes. The same amount of methanol was added to the blank incubations. For the kinetic studies, the activities were determined with substrate concentrations ranging from 0.1 to 4.0µM for EROD and MROD, and from 0.01 to 2mM for PNPH. Kinetic studies were performed under linear conditions. […]

B1: CYP2E1 (Sus scrofa) (protein)
chain: MTALGITVALLVWLVTLLLISIWKHIHSSWKLPPGPFPLPIVGNIFQLDLKNIPKSFTMLAERYGPVFTVYLGSRRIVVLHGYKAVKEVLLHYKNEFSGRGEIPTFQVHKDKGVIFNNGPTWRDTRRFSLTTLRDFGMGKQGNEQRIQREAHFLLEALRKTHGQPFDPTFLIGCAPCNVISDILFRQHFDYNDKTCLRLMSMFNENFYLLSTGWIQLYNNFSGYLRYLPGSHRKLMKNISEIKDYALERVKDHRDSLEPSCPRDFTDTLLMEMEKEKYSAEPIYTLDNIAVTVADMFFAGTETTSTTLRYGLLILMKYPEVEEKLHEEIDRVIGPNRIPAIKDRLVMPYLDAVVHEIQRFIDLIPSNLPHEATRDTDFRDYIIPKGTVVIPTLDSVLYDSQEFPEPEKFKPEHFLNENGKFKYSDHFKAFSAGKRVCVGEGLARMELFLFMAAILQHFNLKSLVDPKDIDLSPIAIGFAKIPPHYKLCVIPRSQV
- Km: 0.33 (0.214–0.452) µM
